Results: publication doi:10.1101/2022.09.14.507982

Molecular target: F-actin (filamentous actin from rabbit muscle) (rabbit) (UniProt P68135)
Assay: co-sedimentation

Kd: 3.42 µM
Substance: Ig3 domain of palladin (domain or fragment)
